Test results taken from the DeepSol protein solubility set.

Assay: soluble on expression in E. coli; label from the status in PepcDB or PDB records

Sequence	soluble on expression in E. coli
MSLKPKYKQIIDDIISQIDSGDLEQGMQLPSQRDMASLYQVNRSTVIQALDILKSQGIIEGREKQRLYVSGNTWHTYIKNNINWQNYISHSTTKNNQYFVQQINKLEFHTNMIRLGTGELAPDLIPNEQFKEILSKCHTPVLNTNYEPPQGNLKLREAVAQYMQKSGVSCTVDHICITSGALQGLKLIADGLLIPQSKIIVESPSYINSIRTWHNMRADIQQISISDIKSNINNIFKAQSQYTNSIFYCIPTLHNPTQHSYSTEEKQKIIMQCEQHGIPIVEDNVYGDLYFNHERPKPLKSFDTNDNILYLNSLSKTVSPGLRVGWIVAKPSVAAHLADLKMQNDYGASSISQYIATQWLTHPQYHDQHLKMLKNQLLIKRNLFLESLKKYFSDFGSWSTPEGSFYIWFQFKFSIDMKRLFDEAIAENILINPGEVYDKDARDCIRFSYAYVDAEDIDETLKHLSKIIQTRFTPPSSHIGKGNEGHHHHHH	not soluble
MSLENKENLVVIDLAIAEDSIQKKNIVYDKNGQNHFDVISAFIKSIRGSDPDATLYWLANMVEAGEDPNFIFRRLLISACEDIGLADPNAIVVVQSCCDAFDRVGFPEGLFFLSQASLYLAISPKSNSTKSIFKAMEAIKATNVSLVPNHLKNNASNYLNPHNYQGKWLQQEYLPTDLQGIKFWKPKDSGWEKNKYEDLPKKQKSEGHHHHHH	soluble
MSLSAPRITRVETAAIRAVGPSVLVRVWAGDEHGLGECYPSAPAAGIHHIVMNMEEQLLGEDPRDVERLYEKMRRWNIFTGGQAGAVITALSGIETALWDLAGKLQGVPVYRLLGGAFRRRVRLYADCNAGTVDAAAHHIEGGLFEEGSNEEYIAVAREAVERGFDAIKLDVDDITGPLHRDFWNGAISPREHEAMVARVAAVREAVGPEVEVAIDMHGRFDIPSSIRFARAMEPFGLLWLEEPTPPENLDALAEVRRSTSTPICAGENVYTRFDFRELFAKRAVDYVMPDVAKCGGLAEAKRIANLAELDYIPFAPHNVSSPVGTVAAAHVCAAVSNFAVLEWHAIDMPHWEDFVRYPGGPVIREGHIELTEEPGLGLELDEEAAFEHRHEKGGVPFFGRTEGHHHHHH	soluble
MISPGEAVLMDGGTTTLEVARQLAGKQLQVVTNSLPIANLLVNQPQIDLMLIGGFLFPKTGVALGKTAVESLKSVHVRRLIISVGGITEDGLYNSNMLLVETEQQMFEAAEEVIVVTDSTKFGHSALAYLCPLDRVDHIVVDDGITEEWKDVIHKAGIELTVVET	not soluble
MAKNKWQPTKHLGIYEYMTKKGKRYGIRVRYKQGNDYPEINKSGFETIAAAKVYKNNIENLKANKKEYVFTNEKLTLNTWFASYMEMFKKKNKSKDTIANKYSIYNNHLEIPFGNYYLTDISLDIYEDFLREKIKNGYANNSVKAMHKLMKSILNAAVRYEKLEKNRLQFAEIEQLEENEVIELKVLETDEFNVFISACRAFFTKYDFTMIYLAVWGMRRGEVMGVKLKNLTFDDAKQQVRITLDSTRTLRTPEGKGTKTPAGRRILLIDGEGYRLLKYSVEKAVSIAKDHGSVLHQDDFIFRNPTSNRPWAVTRMNDLLRKLEKEYDIKVYPHLLRHNFNTQALLAGANSNDLRKFIGHKNSSMTDHYSHATDEGREKLMNTMKDRLSGI	not soluble
MMCGGRGTRLDAAAEKPLFEVGGRAMVDHVRAALEAAGRIDTTHAAVSPHAPDTAAHLAATPLSLIETPGDGYVADLTAALDAVGTPVLTVAADLPLLAPAVVDTVVAAADGATTSACVPRALKHELGVSTDADADAWVPTGVNVVGGGDTEATHRSFDARLAVNVNHRSDAAVAARLLAATDRRNHPRLEHHHHHH	not soluble
GSMLHGLKQRLEALHHPGELEGSPQNLHQLLGVSIEQSVPQAQTMLVERHLASLTGDEARLLAALSDGSAFALLTLYSGSRFSRGEVLYRYSNAGRAAGIQCNDFIALYLNHLFAQGLVIASDFTESLRTDYELCEGDSDFRKAQAELQIHLPKLSIRRETLRISPLGRQLWTLMTTPADIEEGH	soluble
MGSDKIHHHHHHMKKSIVVFEVEGGSDKHFDGHRKDTMPIVNSINDAGWQAEVVYYRPEWTEGLFEYVSENFDGYISRVNPGNIPGGERGYFDLLTRLSEAGLVGMSTPEEMMAYGAKDALVKLSQTDLVPSDTEAYYDVETFHKVFPTSLSFGERVLKQNRGSTGSGIWRVQLVDKELAASIEPGTALPLDTEIKCTEAVDNHTEVRKLGEFMDFCDQYIIGDNGMLVDMRFMPRIVEGEIRILLVGPHPVFVVHKKPAEGGDNFSATLFSGAKYTYDKPEQWQELIDLFADARPVIAEKLGGDNIPLIWTADFMLGDVVDGKDTYVLGEINCSCVGFTSELDMGIQQLVASEAIKRIEEFAQLTV	not soluble
MGSDKIHHHHHHMTGKTVDLKLPAKLDGLFKPCRYKVMYGGRGGGKSHGAASALLALGAQRPLRILCAREIQKSMRDSVHRLLKDKVAQLGLGHFYEITDFEIRGANGTLFVFSGLQSHTVDSIKSFEGIDIVWVEEGHGVSKKSWDVLTPTIRKEGSEIWITLNPDMETDETYRRFIAMPSEDTWLCEINWRDNPWFPEALNRERLKAQRSMNKEDYGNIWEGRPRMVSEGAVYRHEIQDAFHSGRVTLVPYDSSLPVHTVWDLGWNDAMTIGLVQRDLTSVRIIGYIEDTHRTLDWYVAELEKLPYRWGTDFLPHDGRTRNFQTGKSTMEILTGLGRKSVFVQNATGIEEGIRAARMLFPKVYFDKDKTARLLECLKRYGRQIHAKTGVAMGPLHDEYSHGADMFRYLAQAVDLMDTGSNTGYTETPVSDWRLY	not soluble
MITTQDKELLAKKGITEAQIAEQLACFQTGFPYLKLDAAASIEKGILAPDAEEKNAYLAAWDAYKNTDKIIVKFVPASGAASRMFKNLFEFLSAEYDKPTTKFEQAFFDGIKDFAFYDDLNVACQRTAGKDIPGLMEEGNYKAVVAALLETAGLNYGALPKGLLKFHKYPEGSRTPLEEHLAEGAMYAAGKSGKVNVHFTVSTEHRELFKKLVEEKAEAFGKRYGVDYYITFSEQKPNTDTIAADMDNQPFRDNGKLLFRPGGHGALIENLNDLDADIIFIKNIDNVVPDKLKADTVTYKKLIAGVLVSLQKKAFEYLELLDSGKYTHEQIMEILQFLQKQLFCKNPETKNLEDAELVIYLKNKLNRPMRVCGMVKNVGEPGGGPFLAYNSDGTISLQILESSQIDMNDPAKKEMFEKGTHFNPVDLVCAVRDYKGHKFDLVKYVDKATGFISYKSKNGKDLKALELPGLWNGAMSDWNTVFVEVPLTTFNPVKTVNDLLREQHQ	not soluble
MASIADAIGKILTAHSPYPAVVVDRHWNMVDANDAVAVLTEGCAAELLEPPVNVLRLSLHPDGMAPRILDLAQWRGHLLHRLRHQIAVTGDDGLRDLLRELEGYPGGTVGSAELPGSLVVPLRIRHHETVLAFLSTTTMFGTPLDVTVAELAIESFFPADAVTAATLRSSVSSD	soluble
MSLNCKQRRYMKILIVDDNEQYRKLLSAIFVDRGWEAIDAPEGNKGMELLREHIPDVILSDIMMPRMDGFQFLRALRTSAFGDIIFIFYTSTYTKASHRDFALSLGADAYIAKPLDPEDIVQALMDILDRKELREGHHHHHH	not soluble
MKTVSQLIDMKQKQTKISMVTAYDFPSAKQVEAAGIDMILVGDSLGMTVLGYESTVQVTLADMIHHGRAVRRGAPNTFVVVDMPIGAVGISMTQDLNHALKLYQETNANAIKAEGAHITPFIEKATAIGIPVVAHLGLTPQSVGVMGYKLQGATKEAAEQLILDAKNVEQAGAVALVLEAIPNDLAEEISKHLTIPVIGIGAGKGTDGQVLVYHDMLNYGVEHKAKFVKQFADFSVGVDGLKQYDQEVKSGAFPSEEYTYKKKIMNEVNNNDLEHHHHHH	soluble
MSLQELPVPKPHQLKWHEAEMGAVFHYDLHVFDGIRYGQGNNRINPIEDYNIFNPTELNTDQWVQAAKAAGCKFAVLTATHETGFGLWQSDVNPYCLKAVKWRDGKGDIVRDFVNSCRKYGLQPGIYIGIRWNSLLGIHNFKAEGEGAFARNRQAWYKRLCEKMVTELCTRYGDLYMIWFDGGADDPRADGPDVEPIVNKYQPNCLFYHNIDRADFRWGGSETGTVEYPCWSTFPVPCSHHKRIESSIDQLELLKHGDKNGRYWVPAMADTPLRGANGRHEWFWEPDDENNIYPLNTLMDKYEKSVGRNATLILGLTPDPTGLIPAGDAQRLKEMGDEINRRFSSPIARISGQKKSLTLKLGKEQSVNYCIIQENIKNGERIRQYQIEAKVNGKWQTVCKGESVGHKRIEKFEPVEATALRLTVSESIALPDIINFSAYSVKEGHHHHHH	soluble
MGSDKIHHHHHHMKKFVCSNCGYVSPKWFGRCPQCGEYDTAEEVQRRKNREGSPSLFLNLEDAGEISLERLSTGFSELDRAFRGGIVPGQVILLSGEPGIGKSTIALQIAERFAERGLVVYVSGEESPQQLKLRADRLLLKRKKDILLTLENDIDEIISSLQNKRVSFMVVDSIQTVFSSDLGSSPGSISQVKNVTMKTIDFAKRRGVPVLLVGHVTKEGEIAGPKLVEHMVDTVAYFEGDRRTGLRLLKITKNRFGPSDEVAVFELKENGFVQVENPSFTEGDADLPGNVLTCVFEGTKPFVVQIQALVSKNRTFSPKRVCKGVDVNRVMLLIAVISKYLKLPIETHDVYVNVVGGLRVTDPAADLAIALSIVSSYLEVSLHNTAAVGEIGLDGRVRKVYNINRRLNSLKSSGRIIVPPIEEEQKGVFEVRDLKEAVSIIGGEILGTPGAD	not soluble
MRMRLMLLGGGNALGQALIRLGAEEDIAFLAPRPPENGWAPSSLTQLLDDHRPDALVNLAYYFDWFQAESVSEQRLAQQERAVERLAELCQHHQITLVQPSSYRVFDGSRATAYSEKDEPVPLGLRGQALWRIEQSVRAACPQHVLLRFGWLLDESIDGALGRFLTRAEQPQELLLADDRRGNPTPVDDAARVILSVLKQLDCNAPLWGTYHYAGNEATTPLALGQAILAEAGQYRQLAVQAPTPQAHAARPDASEEPQHAVLACKKILHTFGIKPRAWRAGLPPLLDRFYRHG	not soluble
MGSDKIHHHHHHMSGFSPELIDYLEGKISFEEFERRREERKTREKKSLQEKGKLSAEENPDDSEVPSSSGINSTKSQDKDVSEGETSDGVRKSVHKVFASMLGENEDDEEEEEEEEEEEEEEETPEQPTAGDVFVLEMVLNRETKKMMKEKRPRSKLPRALRGLMGEANIRFARGEREEAILMCMEIIRQAPLAYEPFSTLAMIYEDQGDMEKSLQFELIAAHLNPSDTEEWVRLAEMSLEQDNIKQAIFCYTKALKYEPTNVRYLWERSSLYEQMGDHKMAMDGYRRILNLLSPSDGERFMQLARDMAKSYYEANDVTSAINIIDEAFSKHQGLVSMEDVNIAAELYISNKQYDKALEIITDFSGIVLEKKTSEEGTSEENKAPENVTCTIPDGVPIDITVKLMVCLVHLNILEPLNPLLTTLVEQNPEDMGDLYLDVAEAFLDVGEYNSALPLLSALVCSERYNLAVVWLRHAECLKALGYMERAAESYGKVVDLAPLHLDARISLSTLQQQLGQPEKALEALEPMYDPDTLAQDANAAQQELKLLLHRSTLLFSQGKMYGYVDTLLTMLAMLLKVAMNRAQVCLISSSKSGERHLYLIKVSRDKISDSNDQESANCDAKAIFAVLTSVLTKDDWWNLLLKAIYSLCDLSRFQEAELLVDSSLEYYSFYDDRQKRKELEYFGLSAAILDKNFRKAYNYIRIMVMENVNKPQLWNIFNQVTMHSQDVRHHRFCLRLMLKNPENHALCVLNGHNAFVSGSFKHALGQYVQAFRTHPDEPLYSFCIGLTFIHMASQKYVLRRHALIVQGFSFLNRYLSLRGPCQESFYNLGRGLHQLGLIHLAIHYYQKALELPPLVVEGIELDQLDLRRDIAYNLSLIYQSSGNTGMAQTLLYTYCSI	not soluble
VTLSLTKDNFDDVVNNADIILVEFYAPWCGHCKKLAPEYEKAAKELSKRSPPIPLAKVDATEQTDLAKRFDVSGYPTLKIFRKGRPFDYNGPREKYGIVDYMIEQSG	soluble
